Results as given in article PMC10499821 (Nature Communications, 2023).
Where no end group is shown, it is not given here. The star is where a group is joined. FITC = O=C1OC2(c3ccc(O)cc3Oc3cc(O)ccc32)c2ccc(NC(=S)*)cc21

Columns and labels:
Nsp16 = Nsp16 (SARS-CoV-2, UniProt P0DTD1 6799-7096); assay: fluorescence polarisation; conditions: both partners purified
Nsp9 = Nsp9 (SARS-CoV-2, UniProt P0DTD1); assay: fluorescence polarisation; conditions: both partners purified

| Binder | Kd (Nsp16) [µM] | binding result (Nsp9) | further results |
| --- | --- | --- | --- |
| EDPLDSYLNFQALISP (also called FLJ43738 peptide) [FLJ43738_(76–91)] | 62 |  |  |
| FQGAWLGCPEPWEPLL (peptide, UniProt Q99466 1605-1620, looked up, also called NOTCH4 peptide) [NOTCH4_(1605–1620)] |  |  | Kd (Nsp9): ~130 µM |
| PAHPDGFALGRAPLA (also called LMTK3 peptide) [LMTK3_(22–36)] |  | binds |  |
| AEGIDIGEMPSYDLVL (also called NKRF peptide) [NKRF_(8–23)] |  | binds |  |
| {FITC}-AEGIDIGEMPSYDLVL [FITC-NKRF_(8–23)] |  | binds |  |
| MNIQEQGFPLDLGAS (also called Axin-1 peptide) [AXIN1_(1–15)] |  | binds |  |
| PGHSPADYLRFQDLVL (also called DYRK1B peptide; DYRK1B_(394–409)) [DYRK1B_(395–410)] | 56 |  |  |
| NQDMSAWFNLFADLDP (also called ICA1L peptide) [ICA1L_(450–465)] | 30 |  |  |
